T1: P4
T1 chain: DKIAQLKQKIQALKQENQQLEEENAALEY

T2: P4SN
T2 chain: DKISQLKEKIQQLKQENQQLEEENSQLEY


Experiments:
P4 = target: T1, P4; assay: two-hybrid library CCmax; conditions: mean of both orientations;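 further: natural log of median RNA to DNA barcode read ratio; higher means stronger binding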
P4SN = target: T2, P4SN; assay: two-hybrid library CCmax; conditions: mean of both orientations;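 further: natural log of median RNA to DNA barcode read ratio; higher means stronger binding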

Row | Binder | interaction score (P4) | interaction score (P4SN)
1 | DEIQQLEEEIAQLEWKNAALKEKNAQLKA [P3_WA] | 1.5 | 1.9
2 | DEIQQLEEEIAQLEQKNAALKEKNQALKY [P3] | 0.871 | 1.63

From publication PMC10397247
